According to US20210393800A1, “PREPARATION AND APPLICATION OF SUPRAMOLECULAR SELF-ASSEMBLED HYALURONIC ACID HYDROGEL” (PHI BioMed Inc., priority 2018, published 2021):

Experiment: Protein release experiment (EGF in supernatant by HPLC)
Format: physicochemical
Details: 20 ug/ml in HA-Ad/HA-CD hydrogel, 500 ul PBS; for amount of EGF released over time (rank order): supernatant by HPLC according to date
Protocol: Aldehyde groups were introduced to the hyaluronic acid-adamantane (HA-Ad) derivative and hyaluronic acid (HA) using […].
The HA-Ad derivative and HA, to which the aldehyde group had been introduced, were allowed to react with an EGF protein using sodium cyanoborohydride to induce an aldehyde-amine reaction, thereby preparing conjugates. Through the aldehyde-amine reaction, a HA-Ad-EGF conjugate and a HA-EGF conjugate were prepared.
Each of EGF, the prepared HA-Ad-EGF conjugate, and the prepared HA-EGF conjugate was added at a concentration of 20 ug/ml to a 5 wt % hyaluronic acid-adamantane (HA-Ad) derivative solution. 50 ul of a 5 wt % hyaluronic acid-cyclodextrin (HA-CD) derivative solution was added to 50 ul of each of the resulting solutions and then mixed to prepare a hydrogel.
The hydrogel was input into an E-tube and centrifuged to remove air bubbles inside the gel. 500 ul of PBS was added to each hydrogel.
The concentration of EGF included in a supernatant was analyzed by high-performance liquid chromatography (HPLC) according to date.

HA-EGF: EGF protein bound to aldehyde-modified hyaluronic acid through an aldehyde-amine reaction; carried in the hydrogel
amount of EGF released over time (rank order): HA-Ad-EGF<HA-EGF<EGF

EGF: EGF protein used by itself in preparation of the hydrogel
amount of EGF released over time (rank order): HA-Ad-EGF<HA-EGF<EGF

HA-Ad-EGF: EGF protein bound to aldehyde-modified HA-Ad derivative through an aldehyde-amine reaction; carried in the hydrogel
protein release behaviour: release a constant concentration of protein most slowly for a long period of time
amount of EGF released over time (rank order): HA-Ad-EGF<HA-EGF<EGF
